This passage reports IC50 and Kd results from the Immune Epitope Database (IEDB).

One assay concerns the target HLA-A*02:01. The experiment in a line: IEDB peptide-MHC binding, purified MHC/competitive/radioactivity; ≥ and ≤ were set here for values at or beyond the usual limits of such assays. Conditions: source organism: Homo sapiens.
In the case of FLSLGLVSL, the IC50 (usually the midpoint of a concentration-inhibition curve) came out at 206 nM.

Turning to SLVENALVV, the IC50 is 429 nM.

GLFLSLGLV: the IC50 was 535 nM.

On to GLVSLVENA, for which the IC50 is 532 nM.

AVMDPFIYA: the IC50 was 758 nM.

Consider ALIICNAII, for which the IC50 was 893 nM.

With SLNSTPTAI, the IC50 was found to be 633 nM.

In the case of LLCLVVFFL, the IC50 stood at 676 nM.

Regarding TILLGIFFL, the IC50 amounted to 455 nM.

Take VLETAVGLL: the IC50 was determined as 238 nM.

In a further assay the target is HLA-A*02:01. Briefly: IEDB peptide-MHC binding, purified MHC/competitive/radioactivity; filed as Kd, often an IC50 or EC50 that approximates it; ≥ and ≤ were set here for values at or beyond the usual limits of such assays. Conditions: source organism: Homo sapiens.
As to TILIGVFVV, the Kd (in general, the concentration at which binding is half-saturated) is 4540 nM.

On to ILLLEAGAL, for which the Kd is 4760 nM.

Regarding DLLVSGSNV, the Kd is no less than 50000 nM.

As for LLVSGSNVL, the Kd amounted to 1410 nM.

Regarding GLAANQTGA, the Kd was 2380 nM.

Take SVIDPLIYA: the Kd was found to be 1190 nM.

Take ALVARAAVL: the Kd is 11100 nM.

As to ILLGIFFLC, the Kd stood at 5560 nM.

TILLGVFIF: the Kd came to 4540 nM.

Consider ELRRTLKEV, for which the Kd was no less than 50000 nM.

With QLGLAANQT, the Kd was no less than 50000 nM.

Regarding TLPRARRRV, the Kd is no less than 25000 nM.

For LVLMAVLYV, the Kd is 1210 nM.

In the case of YLILIMCNS, the Kd stood at 6250 nM.

Consider MLARACQHA, for which the dissociation constant (Kd) came out at 1640 nM.

YLVLINCNS: the Kd came out at 2170 nM.

In the case of FLAMLVLMA, the Kd was 2080 nM.

Consider GLKGAVTLT, for which the Kd is no less than 50000 nM.

As to NGMLIMCNA, the Kd came out at 16700 nM.

Regarding SLCFLGAIA, the Kd was no less than 10000 nM.
